For test [1], the target named is T1, OG488-TFPIα-BR (fluorescently labeled with OG488 (Oregon Green 488 maleimide)). Put plainly: cell-based or functional assay.
Test [2] concerns the target T1, OG488-TFPIα-BR. In words: fluorescence polarisation; steady-state fluorescence anisotropy; FV species or APCi titrated (0–100 nM) into 25 nM OG488-TFPIα-BR and 50 μM PCPS vesicles in HBS/Ca2+/PEG, pH 7.4 (20 mM Hepes, 150 mM NaCl, 5 mM CaCl2, 0.1% PEG-8000), 25 °C; fit to a model for tight binding. The settings on record: both partners purified. A general note: Polarisation of emitted light reports the rotation of a fluorescent probe.

As usually defined, the Kd is the equilibrium constant for the complex coming apart. As a reminder, the stoichiometry N is the number of molecules, sites or subunits per partner or assembly.

T1 sequence (P10646 268-293): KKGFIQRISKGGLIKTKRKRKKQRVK

B1: FV-short (natural protein)
chain: AQLRQFYVAAQGISWSYRPEPTNSSLNLSVTSFKKIVYREYEPYFKKEKPQSTISGLLGPTLYAEVGDIIKVHFKNKADKPLSIHPQGIRYSKLSEGASYLDHTFPAEKMDDAVAPGREYTYEWSISEDSGPTHDDPPCLTHIYYSHENLIEDFNSGLIGPLLICKKGTLTEGGTQKTFDKQIVLLFAVFDESKSWSQSSSLMYTVNGYVNGTMPDITVCAHDHISWHLLGMSSGPELFSIHFNGQVLEQNHHKVSAITLVSATSTTANMTVGPEGKWIISSLTPKHLQAGMQAYIDIKNCPKKTRNLKKITREQRRHMKRWEYFIAAEEVIWDYAPVIPANMDKKYRSQHLDNFSNQIGKHYKKVMYTQYEDESFTKHTVNPNMKEDGILGPIIRAQVRDTLKIVFKNMASRPYSIYPHGVTFSPYEDEVNSSFTSGRNNTMIRAVQPGETYTYKWNILEFDEPTENDAQCLTRPYYSDVDIMRDIASGLIGLLLICKSRSLDRRGIQRAADIEQQAVFAVFDENKSWYLEDNINKFCENPDEVKRDDPKFYESNIMSTINGYVPESITTLGFCFDDTVQWHFCSVGTQNEILTIHFTGHSFIYGKRHEDTLTLFPMRGESVTVTMDNVGTWMLTSMNSSPRSKKLRLKFRDVKCIPDDDEDSYEIFEPPESTVMATRKMHDRLEPEDEESDADYDYQNRLAAALGIRSFRNSSLNQEEEEFNLTALALENGTEFVSSNTDIIVGSNYSSPSNIDLGQMPSPSSPTLNDTFLSKEFNPLVIVGLSKDGTDYIEIIPKEEVQSSEDDYAEIDYVPYDDPYKTDVRTNINSSRDPDNIAAWYLRSNNGNRRNYYIAAEEISWDYSEFVQRETDIEDSDDIPEDTTYKKVVFRKYLDSTFTKRDPRGEYEEHLGILGPIIRAEVDDVIQVRFKNLASRPYSLHAHGLSYEKSSEGKTYEDDSPEWFKEDNAVQPNSSYTYVWHATERSGPESPGSACRAWAYYSAVNPEKDIHSGLIGPLLICQKGILHKDSNMPMDMREFVLLFMTFDEKKSWYYEKKSRSSWRLTSSEMKKSHEFHAINGMIYSLPGLKMYEQEWVRLHLLNIGGSQDIHVVHFHGQTLLENGNKQHQLGVWPLLPGSFKTLEMKASKPGWWLLNTEVGENQRAGMQTPFLIMDRDCRMPMGLSTGIISDSQIKASEFLGYWEPRLARLNNGGSYNAWSVEKLAAEFASKPWIQVDMQKEVIITGIQTQGAKHYLKSCYTTEFYVAYSSNQINWQIFKGNSTRNVMYFNGNSDASTIKENQFDPPIVARYIRISPTRAYNRPTLRLELQGCEVNGCSTPLGMENGKIENKQITASSFKKSWWGDYWEPFRARLNAQGRVNAWQAKANNNKQWLEIDLLKIKKITAIITQGCKSLSSEMYVKSYTIHYSEQGVEWKPYRLKSSMVDKIFEGNTNTKGHVKNFFNPPIISRFIRVIPKTWNQSIALRLELFGCDIY
Take B1: in the test with OG488-TFPIα-BR [1], the “Reduced fold change of inactivation by APC, +TFPIα-BR (kobs no BR divided by kobs +BR; % peak thrombin in TGA; 20 nM FV species, 250 nM BR fragment, 1 nM APC)” value worked out at 14.2 fold. Besides, in the test with OG488-TFPIα-BR [2], the dissociation constant Kd was determined as 1.56 nM and the “stoichiometry N” value amounted to 1.18 mol/mol.

(Values after PMC9637641, “Regulation of factor V by the anticoagulant protease activated protein C: Influence of the B-domain and TFPIα” (The Journal of Biological Chemistry, 2022).)
